The target in test [1] is T1, human KLK7 (hKLK7), active form (human, UniProt P49862 30-253). In words: cell-based or functional assay.
Test [2] concerns the target T2, mouse KLK7 (mKLK7) (mouse, UniProt Q91VE3 26-249). In words: cell-based or functional assay.
The target in test [3] is T1, human KLK7 (hKLK7), active form. Description: Biacore SPR, antibody captured on Protein A chip, single-cycle kinetics, 25 C.
Procedure: (§1) All screening assays were performed at 25 C. The running buffer used was 20 mM HEPES, 300 mM NaCl, 0.01% Tween-20, pH 7.5. Antibodies (1 ug/mL) were captured on Fc2-4 of a Series S ProteinA Sensor Chip (Cytiva) flowing at 10 ul/mL for 30 s. Kinetics measurements were made in single-cycle kinetics mode with a series of 4-5 concentrations with top concentration of 25-100 nM and serial dilution 4-fold. Contact time was typically 300 s and dissociation time ranged from 1800-3600 s. Flow rate of 30 ul/mL was typically used. The sensor chip was regenerated with 10 mM glycine, pH 1.5 with a contact time of 30 s flowing at 50 ul/mL.
For test [4], the target named is T2, mouse KLK7 (mKLK7). Described as above.
Procedure: as §1
Test [5] addresses T3, mouse KLK5 (mKLK5) (mouse).
T3 construct: Enzymatically active in the protease assay
Described as above.
Procedure: as §1

Test [6] deals with T4, human KLK5 (hKLK5), active form (human, UniProt Q9Y337 67-293). In words: cell-based or functional assay.
Test [7] has as its target T3, mouse KLK5 (mKLK5). Description: cell-based or functional assay.
In test [8] the target is T4, human KLK5 (hKLK5), active form. Description: Biacore SPR, antibody captured on Protein A chip, single-cycle kinetics, 25 C.
Procedure: as §1

T2 sequence (Q91VE3 26-249 limits assumed): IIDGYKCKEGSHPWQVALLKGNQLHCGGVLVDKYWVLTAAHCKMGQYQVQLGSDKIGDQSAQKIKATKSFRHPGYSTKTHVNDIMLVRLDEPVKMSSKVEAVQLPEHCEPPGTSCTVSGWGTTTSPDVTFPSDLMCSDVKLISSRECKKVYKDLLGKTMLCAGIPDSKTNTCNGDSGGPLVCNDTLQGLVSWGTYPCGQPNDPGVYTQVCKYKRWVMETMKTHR
T1 sequence (P49862 30-253): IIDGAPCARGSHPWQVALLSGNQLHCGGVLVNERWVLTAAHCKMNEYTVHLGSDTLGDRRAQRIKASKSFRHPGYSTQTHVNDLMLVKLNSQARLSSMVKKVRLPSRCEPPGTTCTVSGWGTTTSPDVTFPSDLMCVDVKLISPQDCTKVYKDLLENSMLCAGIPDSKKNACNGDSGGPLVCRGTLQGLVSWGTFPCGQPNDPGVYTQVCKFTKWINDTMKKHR

B1: KLK7-L1-Ab8 (antibody, V domains shown)
VH: QVQLVQSGAEVKKPGASVKVSCKASGYTFTSEGIHWVRQAPGQGLEWMGSISASSGDTNYAQKLQGRVTMTTDTSTSTAYMELRSLRSDDTAVYYCARSAGYGARHWYFDLWGQGTMVTVSS
VL: DIQMTQSPSSLSASVGDRVTITCRASQSISSYLNWYQQKPGKAPKLLIYGASSLQSGVPSRFSGSGSGTDFTLTISSLQPEDFATYYCDQWYSTPPITFGGGTKVEIK
In the case of B1, in test [1], the “hKLK7 IC50 (protease inhibition)” value turned out to be 0.767 nM and the “hKLK7 IC90 (protease inhibition)” value is 3.95 nM. Besides, in the test with mouse KLK7 (mKLK7) [2], the “mKLK7 IC50 (protease inhibition)” value stood at 1.1 nM and the “mKLK7 IC90 (protease inhibition)” value stood at 5.3 nM. For the same molecule, the Kd in test [3] turned out to be 0.01 nM. For the same molecule, the Kd with mouse KLK7 (mKLK7) [4] turned out to be 0.0569 nM.

B2: KLK7-L4-Ab1 (antibody, V domains shown)
VH: QLQLQESGPGLVKPSETLSLTCTVSGGSISSSSYYWGWIRQPPGKGLEWIGSISYSGSTYYNPSLKSRVTISVDTSKNQFSLKLSSVTAADTAVYYCARGAPTYFGAASHYYYYMDVWGKGTTVTVSS
VL: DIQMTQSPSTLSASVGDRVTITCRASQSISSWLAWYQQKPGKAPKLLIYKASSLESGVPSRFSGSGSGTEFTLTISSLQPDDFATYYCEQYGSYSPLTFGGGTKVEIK
As for B2, in test [1], the “hKLK7 IC50 (protease inhibition)” value amounted to 0.52 nM and the “hKLK7 IC90 (protease inhibition)” value was found to be 14.9 nM. Moreover, in the test with mouse KLK7 (mKLK7) [2], the “mKLK7 IC50 (protease inhibition)” value is 16.3 nM and the “mKLK7 IC90 (protease inhibition)” value came to 118 nM. Further, the Kd in test [3] turned out to be 0.219 nM. In the test with mouse KLK7 (mKLK7) [4], this molecule had a Kd of 6 nM.

B3: KLK5-L2-Ab4 (antibody, V domains shown)
VH: QLQLQESGPGLVKPSETLSLTCTVSGGSIPSSSYYWSWIRQPPGKGLEWIGNIYYSGSTYYNPSLKSRVTISVDTSKNQFSLKLSSVTAADTAVYYCARGEYDRSYYYWGLDVWGQGTTVTVSS
VL: not shown
B3: in the test with mouse KLK5 (mKLK5) [5], the Kd came to 0.47 nM. Moreover, in test [6], the “hKLK5 IC50 (protease inhibition)” value amounted to 2.04 nM and the “hKLK5 IC90 (protease inhibition)” value worked out at 9.86 nM. For the same molecule, in the test with mouse KLK5 (mKLK5) [7], the “mKLK5 IC50 (protease inhibition)” value was found to be 1.68 nM and the “mKLK5 IC90 (protease inhibition)” value amounted to 15.6 nM.

B4: KLK5-L2-Ab3 (antibody, V domains shown)
VH: QLQLQESGPGLVKPSETLSLTCTVSGGSIPSSSYYWSWIRQPPGKGLEWIGNIYYSGSTYYNPSLKSRVTISVDTSKNQFSLKLSSVTAADTAVYYCARGEYDRSYYFWGMDVWGQGTTVTVSS
VL: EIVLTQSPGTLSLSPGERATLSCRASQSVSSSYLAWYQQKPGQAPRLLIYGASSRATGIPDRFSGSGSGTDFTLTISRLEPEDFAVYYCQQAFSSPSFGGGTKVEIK
Molecule B4 registered a Kd with mouse KLK5 (mKLK5) [5] of 0.59 nM. In test [6], the “hKLK5 IC50 (protease inhibition)” value stood at 2.26 nM and the “hKLK5 IC90 (protease inhibition)” value came to 10.2 nM. For the same molecule, in the test with mouse KLK5 (mKLK5) [7], the “mKLK5 IC50 (protease inhibition)” value amounted to 1.82 nM and the “mKLK5 IC90 (protease inhibition)” value worked out at 29.5 nM.

B5: KLK5-L2-Ab2 (antibody, V domains shown)
VH: QLQLQESGPGLVKPSETLSLTCTVSGGSIPSSSYYWAWIRQPPGKGLEWIGNIYYSGSTYYNPSLKSRVTISVDTSKNQFSLKLSSVTAADTAVYYCARGEYDRSALYYGMDVWGQGTTVTVSS
VL: not shown
In turn, B5 displayed a Kd in test [8] of 0.003 nM. In the test with mouse KLK5 (mKLK5) [5], this molecule displayed a Kd of 0.44 nM. In test [6], the “hKLK5 IC50 (protease inhibition)” value turned out to be 1.71 nM and the “hKLK5 IC90 (protease inhibition)” value worked out at 8.46 nM. In the test with mouse KLK5 (mKLK5) [7], the “mKLK5 IC50 (protease inhibition)” value amounted to 2.21 nM and the “mKLK5 IC90 (protease inhibition)” value amounted to 13.1 nM.

B6: KLK5-L2-Ab1 (antibody, V domains shown)
VH: QLQLQESGPGLVKPSETLSLTCTVSGGSISSSSYYWGWIRQPPGKGLEWIGSISYSGSTYYNPSLKSRVTISVDTSKNQFSLKLSSVTAADTAVYYCARGEYDRSYYYYGMDVWGQGTTVTVSS
VL: not shown
Regarding B6, the Kd in test [8] stood at 2.53 nM. Moreover, in the test with mouse KLK5 (mKLK5) [5], the Kd is 20.5 nM. For the same molecule, in test [6], the “hKLK5 IC50 (protease inhibition)” value amounted to 11 nM and the “hKLK5 IC90 (protease inhibition)” value was found to be 92.9 nM. Also, in the test with mouse KLK5 (mKLK5) [7], the “mKLK5 IC50 (protease inhibition)” value was determined as 45.9 nM and the “mKLK5 IC90 (protease inhibition)” value was 93.2 nM.

B7: KLK5-L1-Ab1 (antibody, V domains shown)
VH: EVQLVESGGGLVQPGGSLRLSCAASGFTFSSYSMNWVRQAPGKGLEWVSYISSSSSTIYYADSVKGRFTISRDNAKNSLYLQMNSLRAEDTAVYYCARDLTSMQSRDYYYYGMDVWGQGTTVTVSS
VL: DIQMTQSPSSVSASVGDRVTITCRASQGISSWLAWYQQKPGKAPKLLIYAASSLQSGVPSRFSGSGSGTDFTLTISSLQPEDFATYYCQQVPIFPYTFGGGTKVEIK
On to B7, for which, in test [8], the Kd is 0.783 nM. In the test with mouse KLK5 (mKLK5) [5], this molecule showed a Kd of 4.44 nM. For the same molecule, in test [6], the “hKLK5 IC50 (protease inhibition)” value came to 3.45 nM and the “hKLK5 IC90 (protease inhibition)” value came to 83.1 nM. In addition, in the test with mouse KLK5 (mKLK5) [7], the “mKLK5 IC50 (protease inhibition)” value was 29.4 nM and the “mKLK5 IC90 (protease inhibition)” value came out at 103 nM.

B8: KLK5-L3-Ab2 (antibody, V domains shown)
VH: QVQLVQSGAEVKKPGSSVKVSCKASGGTFSGYSISWVRQAPGQGLEWMGLIFPISGTANYAQKFQGRVTITADESTSTAYMELSSLRSEDTAVYYCARGSASGYYDRSYYYYGMDVWGQGTTVTVSS
VL: DIQMTQSPSSVSASVGDRVTITCRASQGISSWLAWYQQKPGKAPKLLIYAASSLQSGVPSRFSGSGSGTDFTLTISSLQPEDFATYYCQQVSSFPYTFGGGTKVEIK
B8 registered a Kd in the test with mouse KLK5 (mKLK5) [5] of 3.8 nM. Besides, in test [6], the “hKLK5 IC50 (protease inhibition)” value stood at 4.45 nM and the “hKLK5 IC90 (protease inhibition)” value stood at 24 nM. Also, in the test with mouse KLK5 (mKLK5) [7], the “mKLK5 IC50 (protease inhibition)” value amounted to 15 nM and the “mKLK5 IC90 (protease inhibition)” value was found to be 91.3 nM.

B9: KLK7-L3-Ab1 (antibody, V domains shown)
VH: QVQLVQSGAEVKKPGSSVKVSCKASGGTFSNYAISWVRQAPGQGLEWMGGIIPIFGTANYAQKFQGRVTITADESTSTAYMELSSLRSEDTAVYYCARGAPNYYGSSSSRGIAFDIWGQGTMVTVSS
VL: DIQMTQSPSSVSASVGDRVTITCRASQGISSWLAWYQQKPGKAPKLLIYAASSLQSGVPSRFSGSGSGTDFTLTISSLQPEDFATYYCVQANAFPYTFGGGTKVEIK
For the molecule B9, in test [1], the “hKLK7 IC50 (protease inhibition)” value amounted to 0.37 nM and the “hKLK7 IC90 (protease inhibition)” value stood at 10.5 nM. Also, in the test with mouse KLK7 (mKLK7) [2], the “mKLK7 IC50 (protease inhibition)” value stood at 10.9 nM and the “mKLK7 IC90 (protease inhibition)” value amounted to 212 nM. Moreover, the Kd in test [3] amounted to 0.0205 nM. The molecule further gave a Kd in the test with mouse KLK7 (mKLK7) [4] of 9.03 nM.

B10: KLK5-L3-Ab4 (antibody, V domains shown)
VH: QVQLVQSGAEVKKPGSSVKVSCKASGGTFNNYHISWVRQAPGQGLEWMGGIIPPFGTAHYAQKFQGRVTITADESTSTAYMELSSLRSEDTAVYYCARGEASGYYDRSYYYYGLDVWGQGTTVTVSS
VL: DIQMTQSPSSVSASVGDRVTITCRASQGISSWLAWYQQKPGKAPKLLIYAASSLQSGVPSRFSGSGSGTDFTLTISSLQPEDFATYYCQQVSSFPYTFGGGTKVEIK
In the test with mouse KLK5 (mKLK5) [5], B10 had a Kd of 8.8 nM. Moreover, in test [6], the “hKLK5 IC50 (protease inhibition)” value was 1.76 nM and the “hKLK5 IC90 (protease inhibition)” value worked out at 9.81 nM. In addition, in the test with mouse KLK5 (mKLK5) [7], the “mKLK5 IC50 (protease inhibition)” value was found to be 8.27 nM and the “mKLK5 IC90 (protease inhibition)” value was 83.2 nM.

B11: KLK5-L1-Ab4 (antibody, V domains shown)
VH: EVQLVESGGGLVQPGGSLRLSCAASGFTFNDYSMNWVRQAPGKGLEWVSYISSSSSYIDYADSVKGRFTISRDNAKNSLYLQMNSLRAEDTAVYYCARDLTSMQSRDYYYYGMDVWGQGTTVTVSS
VL: DIQMTQSPSSVSASVGDRVTITCRASQGISSWLAWYQQKPGKAPKLLIYAASSLQSGVPSRFSGSGSGTDFTLTISSLQPEDFATYYCQQVPIFPYTFGGGTKVEIK
The molecule B11 returned a Kd in the test with mouse KLK5 (mKLK5) [5] of 0.66 nM. In test [6], the “hKLK5 IC50 (protease inhibition)” value is 2.49 nM and the “hKLK5 IC90 (protease inhibition)” value was 10.6 nM. In the test with mouse KLK5 (mKLK5) [7], the “mKLK5 IC50 (protease inhibition)” value came out at 9.26 nM and the “mKLK5 IC90 (protease inhibition)” value was found to be 81.2 nM.

B12: KLK5-L3-Ab5 (antibody, V domains shown)
VH: QVQLVQSGAEVKKPGSSVKVSCKASGGTFSGYSISWVRQAPGQGLEWMGLIFPISGTANYAQKFQGRVTITADESTSTAYMELSSLRSEDTAVYYCARQSASGYYDRSYYRYGMDVWGQGTTVTVSS
VL: DIQMTQSPSSVSASVGDRVTITCRASQGISSWLAWYQQKPGKAPKLLIYAASSLQSGVPSRFSGSGSGTDFTLTISSLQPEDFATYYCQQVSSFPYTFGGGTKVEIK
The molecule B12 displayed a Kd with mouse KLK5 (mKLK5) [5] of 3.4 nM. In addition, in test [6], the “hKLK5 IC50 (protease inhibition)” value amounted to 2.58 nM and the “hKLK5 IC90 (protease inhibition)” value is 10.6 nM. In the test with mouse KLK5 (mKLK5) [7], the “mKLK5 IC50 (protease inhibition)” value was 4.44 nM and the “mKLK5 IC90 (protease inhibition)” value came out at 28.4 nM.

B13: KLK5-L3-Ab3 (antibody, V domains shown)
VH: QVQLVQSGAEVKKPGSSVKVSCKASGGTFNNYHISWVRQAPGQGLEWMGGIIPPFGTAHYAQKFQGRVTITADESTSTAYMELSSLRSEDTAVYYCARGSASGYYDRSYYYYGMDVWGQGTTVTVSS
VL: DIQMTQSPSSVSASVGDRVTITCRASQGISSWLAWYQQKPGKAPKLLIYAASSLQSGVPSRFSGSGSGTDFTLTISSLQPEDFATYYCQQVSSFPYTFGGGTKVEIK
B13 showed a Kd with mouse KLK5 (mKLK5) [5] of 7.2 nM. In test [6], the “hKLK5 IC50 (protease inhibition)” value worked out at 2.81 nM and the “hKLK5 IC90 (protease inhibition)” value came out at 11.1 nM. In the test with mouse KLK5 (mKLK5) [7], the “mKLK5 IC50 (protease inhibition)” value was found to be 14.9 nM and the “mKLK5 IC90 (protease inhibition)” value is 87 nM.

B14: KLK5-L3-Ab1 (antibody, V domains shown)
VH: QVQLVQSGAEVKKPGASVKVSCKASGYTFTGYYMHWVRQAPGQGLEWMGGIIPISGTANYAQKFQGRVTITADESTSTAYMELSSLRSEDTAVYYCARGSASGYYDRSYYYYGMDVWGQGTTVTVSS
VL: DIQMTQSPSSVSASVGDRVTITCRASQGISSWLAWYQQKPGKAPKLLIYAASSLQSGVPSRFSGSGSGTDFTLTISSLQPEDFATYYCQQVSSFPYTFGGGTKVEIK
Take B14: binding in test [8] was put at a Kd of 2.62 nM. The molecule further displayed a Kd with mouse KLK5 (mKLK5) [5] of 16.6 nM. In addition, in test [6], the “hKLK5 IC50 (protease inhibition)” value was 12.7 nM and the “hKLK5 IC90 (protease inhibition)” value amounted to 112 nM. In the test with mouse KLK5 (mKLK5) [7], the “mKLK5 IC50 (protease inhibition)” value is 81.3 nM and the “mKLK5 IC90 (protease inhibition)” value amounted to 130 nM.

As a reminder, the Kd is a measure of binding affinity in units of concentration. A lower Kd goes with a tighter complex.

(Values after US20260258155A1 (TRIVENI BIO, published 2026).)
